In the assay the target is T1, STING-HA (Sting cDNA with a C-terminal HA tag, stably expressed in p53-/- MEFs) (mouse, UniProt Q3TBT3 1-378).
T1 construct: not shown: C-terminal HA tag added by PCR
T1 sequence (looked up): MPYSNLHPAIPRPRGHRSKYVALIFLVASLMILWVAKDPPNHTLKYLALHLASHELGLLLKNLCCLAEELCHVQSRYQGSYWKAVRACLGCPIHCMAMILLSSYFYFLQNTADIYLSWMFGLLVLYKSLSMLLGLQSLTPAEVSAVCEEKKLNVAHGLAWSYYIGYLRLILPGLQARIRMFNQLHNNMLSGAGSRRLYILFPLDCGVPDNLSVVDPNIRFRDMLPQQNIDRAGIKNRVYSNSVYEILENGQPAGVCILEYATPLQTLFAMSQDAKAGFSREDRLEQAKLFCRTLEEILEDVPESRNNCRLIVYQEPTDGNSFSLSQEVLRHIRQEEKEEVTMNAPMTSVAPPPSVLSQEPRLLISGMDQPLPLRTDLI
The assay can be described thus: anti-HA immunoprecipitation of STING-HA from MEF lysate, SILAC mass spectrometry. The procedure: Light (L) and heavy (H) isotope-labeled p53−/− MEFs mock infected (L) or stably expressing Sting-HA (H) were stimulated with 1000 U/mL IFNβ for 18 h. H cells were transfected with ISD for 2.5 h. Cells were lysed in 0.2% NP-40 buffer (above), and insoluble proteins were removed by centrifugation. 18 mg of each lysate was mixed with 1 ug/mL anti-HA antibody and Protein G beads (Pierce), and rotated for 2.5 h at 4° C. Beads were pelleted and washed extensively with wash buffer (above). The two samples were mixed, cysteines were reduced by DTT and alkylated with iodoacetamide, and proteins were eluted by heating in SDS sample buffer (Life Technologies) for 10 min before separation on a 4-12% gradient gel. The whole gel lane was cut into 8 slices, proteins were digested inside the gel with trypsin, and peptides were extracted from the gel as described4. Extracted peptides were purified with StageTips5 and analyzed with a 100 min acquisition method on a Thermo EASY-nLC 1000 UHPLC coupled to a Q Exactive mass spectrometer. […] All proteins were identified with at least 2 or more unique peptides and quantified with 3 or more ratios. […] To identify significant interactions, P-values were calculated via Gaussian modeling of the log(H/L) data, and proteins with P<0.05 were designated as candidates for siRNA screening.

B1: HMGB2 (other, mouse, UniProt P30681 1-210, looked up)
chain: MGKGDPNKPRGKMSSYAFFVQTCREEHKKKHPDSSVNFAEFSKKCSERWKTMSAKEKSKFEDLAKSDKARYDREMKNYVPPKGDKKGKKKDPNAPKRPPSAFFLFCSENRPKIKIEHPGLSIGDTAKKLGEMWSEQSAKDKQPYEQKAAKLKEKYEKDIAAYRAKGKSEAGKKGPGRPTGSKKKNEPEDEEEEEEEEEEEDDEEEEEDEE
notes: Endogenous protein co-precipitated from MEF lysates
Consider B1, for which the binding result was “no binding”.

B2: ANP32A (other, mouse, UniProt O35381 1-247, looked up)
chain: MEMDKRIYLELRNRTPSDVKELVLDNCKSIEGKIEGLTDEFEELEFLSTINVGLTSISNLPKLNKLKKLELSENRISGDLEVLAEKCPNLKHLNLSGNKIKDLSTIEPLKKLENLKSLDLFNCEVTNLNAYRENVFKLLPQVMYLDGYDRDNKEAPDSDVEGYVEDDDEEDEDEEEYDEYAQLVEDEEEEDEEEEGEEEDVSGEEEEDEEGYNDGEVDDEEDEEEAGEEEGSQKRKREPDDEGEEDD
notes: as for B1
With B2, the binding result was “no binding”.

(Values after patent US20150202223A1 (GENERAL HOSPITAL, published 2015).)
